Measurements: patent US20140239237A1 (BOARD OF TRUSTEES OF MICHIGAN STATE UNIVERSITY, published 2014)

Experiments:
[1] = target: the molecule itself; experiment: in vitro self-assembly into fibers, seen by TEM and AFM
[2] = target: the molecule itself; experiment: in vitro self-assembly, TEM

Protein | binding result [1] | binding result [2]
AIPQFSAYRVKAYNSAASSDLRNLKTALESAFADDQTYPPES (42 residues, released from the CBD-intein fusion with DTT; also called PilA19 subunit; PilA19 monomer) [PilA19 peptide (19 amino acid N-terminal truncation of G. sulfurreducens PilA)] | binds | –
CIPQFSAYRVKAYNSAASSDLRNLKTALESAFADDQTYPPES (42 residues; The N-terminal alanine of PilA19, position 20 of full-length mature PilA, is replaced by cysteine; also called cysteine-modified subunit; PilA19-A20C monomer) [PilA19-A20C cysteine-modified recombinant pilin] | – | binds
